Experimental data taken from US20220025032A1 (Novartis, published 2022).
Positions count from the first letter of the chain named.

What was measured:
[1] = target: T1, Human BTC (human, UniProt P35070 32-111); test: SPR (Biacore/ProteOn)
T1 construct: Soluble human BTC of the Biacore, ELISA, MSD and cell assays; also called human betacellulin; soluble human BTC
T1 sequence: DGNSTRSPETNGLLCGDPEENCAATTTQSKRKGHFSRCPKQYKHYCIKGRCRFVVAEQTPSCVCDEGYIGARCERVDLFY

[2] = target: T2, Mouse BTC (mouse, UniProt Q05928 32-111, limits assumed); test: SPR (Biacore/ProteOn)
T2 sequence (looked up): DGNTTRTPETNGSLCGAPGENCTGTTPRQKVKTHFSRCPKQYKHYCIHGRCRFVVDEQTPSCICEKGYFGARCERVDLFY

[3] = target: T3, Cyno BTC (cynomolgus, UniProt A0A2K5X5E5 32-111); test: SPR (Biacore/ProteOn)
T3 construct: also called cynomolgus BTC
T3 sequence: T1 sequence with E19D, A56T

[4] = target: T4, Rabbit BTC (rabbit, UniProt G1SJ89 32-111); test: SPR (Biacore/ProteOn)
T4 sequence: T1 sequence with D1S, L14S, D17Y, E19G, A23T, T27V, S29P, V63I, I69T

[5] = target: T1, Human BTC; test: MSD-based inhibition of BTC binding to ErbB4
[6] = target: T5, membrane-bound human BTC on 293F-hBTC cells (human, UniProt P35070 32-111); test: flow cytometry, 293F cells with BTC against 293F
T5 construct: the transfected construct is not described; also called membrane-anchored BTC
T5 sequence: T1 sequence

[7] = target: T1, Human BTC; test: SPR Biacore T200, anti-Fab capture, antigen as analyte
[8] = target: T1, Human BTC; test: inhibition of BTC binding to ErbB4; y axis MSD units, x axis Antibody concentration (pM); blocked partner ErbB4

Kd [1]: 6 pM
Kd [2]: 4 pM
Kd [3]: 8 pM
Kd [4]: 4 pM
MSD-based binding inhibition BTC/ErbB4 [5]: > 90%
Binding to membrane-anchored BTC (median, X above 293F) [6]: > 10 X above 293F
Kd [7]: 1.7 pM
IC50 [8]: 591 pM
B1: NVS1 (Fab, V domains shown)
VH: QVQLVQSGAEVKKPGSSVKVSCKASGGTFSSYAISWVRQAPGQGLEWMGGIVPWMGEAVYAQKFQGRVTITADESTSTAYMELSSLRSEDTAVYYCARSSSTYGIHAFDYWGQGTLVTVSS
VL: DIQMTQSPSSLSASVGDRVTITCRASQSISNFLNWYQQKPGKAPKLLIYAASNLQSGVPSRFSGSGSGTDFTLTISSLQPEDFATYYCQQYDDFPMTFGQGTKVEIKR
notes: also called Fab NVS1; NVS1 Fab
